In PMC3654483 (Bioscience Reports, 2013):

B1: Sirt1-214-747 (domain or fragment)
chain: ELDDMTLWQIVINILSEPPKRKKRKDINTIEDAVKLLQECKKIIVLTGAGVSVSCGIPDFRSRDGIYARLAVDFPDLPDPQAMFDIEYFRKDPRPFFKFAKEIYPGQFQPSLCHKFIALSDKEGKLLRNYTQNIDTLEQVAGIQRIIQCHGSFATASCLICKYKVDCEAVRGDIFNQVVPRCPRCPADEPLAIMKPEIVFFGENLPEQFHRAMKYDKDEVDLLIVIGSSLKVRPVALIPSSIPHEVPQILINREPLPHLHFDVELLGDCDVIINELCHRLGGEYAKLCCNPVKLSEITEKPPRTQKELAYLSELPPTPLHVSEDSSSPERTSPPDSSVIVTLLDQAAKSNDDLDVSESKGCMEEKPQEVQTSRNVESIAEQMENPDLKNVGSSTGEKNERTSVAGTVRKCWPNRVAKEQISRRLDGNQYLFLPPNRYIFHGAEVYSDSEDDVLSSSSCGSNSDSGTCQSPSLEEPMEDESEIEEFYNGLEDEPDVPERAGGAGFGTDGDDQEAINEAISVKQEVTDMNYPSNKS
B2: Sirt1-214-664 (domain or fragment)
chain: ELDDMTLWQIVINILSEPPKRKKRKDINTIEDAVKLLQECKKIIVLTGAGVSVSCGIPDFRSRDGIYARLAVDFPDLPDPQAMFDIEYFRKDPRPFFKFAKEIYPGQFQPSLCHKFIALSDKEGKLLRNYTQNIDTLEQVAGIQRIIQCHGSFATASCLICKYKVDCEAVRGDIFNQVVPRCPRCPADEPLAIMKPEIVFFGENLPEQFHRAMKYDKDEVDLLIVIGSSLKVRPVALIPSSIPHEVPQILINREPLPHLHFDVELLGDCDVIINELCHRLGGEYAKLCCNPVKLSEITEKPPRTQKELAYLSELPPTPLHVSEDSSSPERTSPPDSSVIVTLLDQAAKSNDDLDVSESKGCMEEKPQEVQTSRNVESIAEQMENPDLKNVGSSTGEKNERTSVAGTVRKCWPNRVAKEQISRRLDGNQYLFLPPNRYIFHGAEVYSDSEDD

Biological target: the molecule itself
Test: AUC

Row | Protein | binding result
1 | B1 | binds
2 | B2 | binds
